We go through 5 molecules from article PMC3898841, “Identification of a Major Determinant for Serine-Threonine Kinase Phosphoacceptor Specificity” (Molecular Cell, 2014).

In experiment [1] the target is T1, WT PAK4 catalytic domain (human, UniProt O96013 286-591, phosphoserine at 474 (activation loop, as seen in the structures)).
T1 construct: residues built in the models: 300-589 (4JDH, 4JDI) and 291-591 (2Q0N); The construct of PDB 2Q0N may have other limits than that of 4JDH/4JDI

Experiment [2] deals with T2, PAK4 F461V catalytic domain (human, UniProt O96013 286-591, F461V, phosphoserine at 474 (activation loop, as seen in the structures)).
T2 construct: residues built in the models: 300-589; also called F461V mutant PAK4

The next experiment concerns the target MST4 V165F (human) (UniProt Q9P289).
The next experiment deals with WT MST4 (human) (UniProt Q9P289).
Experiment [3] deals with T2, PAK4 F461V catalytic domain. Nature of the experiment: crystal structure; PAK4 F461V cocrystals with peptide, hanging drop vapor diffusion, 0.1 M Tris-HCl (pH 7.5), 1.5-2.0 M NaOAc at room temperature. As to conditions: both partners purified.
The target in experiment [4] is T1, WT PAK4 catalytic domain. Nature of the experiment: crystal structure; WT PAK4 crystals grown by hanging drop vapor diffusion against 0.1 M Tris-HCl (pH 7.5), 1.5-2.0 M NaOAc at room temperature and soaked with peptides. To be noted: both partners purified.
Experiment [5] addresses T1, WT PAK4 catalytic domain. Nature of the experiment: crystal structure; cocrystals of PAK4 with PAKtide-S(L), 1.7 M ammonium sulfate, 15% PEG400, 0.1 M Tris-HCl (pH 8.0). To be noted: both partners purified.

T1 sequence (O96013 286-591): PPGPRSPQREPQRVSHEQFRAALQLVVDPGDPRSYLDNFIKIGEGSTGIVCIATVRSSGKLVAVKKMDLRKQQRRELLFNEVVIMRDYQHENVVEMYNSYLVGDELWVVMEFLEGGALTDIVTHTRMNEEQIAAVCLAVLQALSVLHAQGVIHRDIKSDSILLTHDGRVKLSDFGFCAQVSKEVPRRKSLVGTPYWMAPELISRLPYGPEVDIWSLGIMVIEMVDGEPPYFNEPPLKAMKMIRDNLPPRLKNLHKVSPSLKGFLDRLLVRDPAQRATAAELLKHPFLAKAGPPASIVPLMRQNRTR
Chain of MST4 V165F (human) (Q9P289 whole entry V165F): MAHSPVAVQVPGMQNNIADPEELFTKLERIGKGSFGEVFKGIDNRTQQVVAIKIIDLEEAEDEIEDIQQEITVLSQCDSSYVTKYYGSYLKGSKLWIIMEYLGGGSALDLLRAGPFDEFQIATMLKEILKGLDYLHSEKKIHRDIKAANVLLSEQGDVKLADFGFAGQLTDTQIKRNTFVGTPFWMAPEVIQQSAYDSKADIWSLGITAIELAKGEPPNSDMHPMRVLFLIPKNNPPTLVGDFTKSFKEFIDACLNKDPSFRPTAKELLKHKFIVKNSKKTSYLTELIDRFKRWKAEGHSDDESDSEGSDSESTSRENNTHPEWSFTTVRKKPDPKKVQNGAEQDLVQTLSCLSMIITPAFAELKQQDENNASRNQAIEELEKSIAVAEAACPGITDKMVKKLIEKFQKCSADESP
T2 sequence (O96013 286-591 F461V): as the sequence (O96013 286-591) above, with F176V counted along it
Chain of WT MST4 (human) (Q9P289 whole entry, the tested form may be a part): as the sequence (Q9P289 whole entry V165F) above, with F165V counted along it

Turning to GGRRRRRSWYFGGGK [PAK4 substrate peptide … (X = Ser)], the Km for phosphorylation of the peptide (radiolabel filter binding kinase assay) with WT PAK4 catalytic domain [1] was 280 µM; in experiment [2], 129 µM.

Regarding NKGYNSLRRKK [MST4 substrate peptide … (X = Ser)], the Km for phosphorylation of the peptide (radiolabel filter binding kinase assay) with MST4 V165F (human) was 360 µM; in the experiment with WT MST4 (human) it was 21.7 µM.

B1: PAKtide-S (peptide)
peptide: RRRRSWY
notes: consensus peptide substrate of PAK4, phosphoacceptor Ser (P0); also called PAK4 consensus peptide substrate with Ser phosphoacceptor (short form used for crystals); source: synthetic peptide
For B1, the binding result (in experiment [3]; in the experiment with WT PAK4 catalytic domain [4]) was “binds” throughout.

B2: PAKtide-S(L) (peptide)
peptide: RRRRRSWYFDG
notes: longer consensus peptide substrate of PAK4, phosphoacceptor Ser (P0); also called longer version of the consensus peptide; source: synthetic peptide
In the case of B2, the binding result with WT PAK4 catalytic domain [5] was “binds”.

In the case of NKGYNTLRRKK [MST4 substrate peptide … (X = Thr)], the Km for phosphorylation of the peptide (radiolabel filter binding kinase assay) in the experiment with MST4 V165F (human) was determined as 390 µM; in the experiment with WT MST4 (human) it was 14 µM.
